According to publication PMC4133371:

Target: endogenous E-cadherin (dog (endogenous in MDCK))
Test: co-IP; endogenous E-cadherin collected by antibodies to its extracellular part from lysates of MDCK cells expressing DsRed, DECT, DECTSA, DECTN or DECTC; immunoblot with anti-β-catenin or anti-plakoglobin; bands quantified with NIH Image as percent of DsRed cells

endogenous E-cadherin (dog (endogenous in MDCK)), sequence (F1PAA9 27-885): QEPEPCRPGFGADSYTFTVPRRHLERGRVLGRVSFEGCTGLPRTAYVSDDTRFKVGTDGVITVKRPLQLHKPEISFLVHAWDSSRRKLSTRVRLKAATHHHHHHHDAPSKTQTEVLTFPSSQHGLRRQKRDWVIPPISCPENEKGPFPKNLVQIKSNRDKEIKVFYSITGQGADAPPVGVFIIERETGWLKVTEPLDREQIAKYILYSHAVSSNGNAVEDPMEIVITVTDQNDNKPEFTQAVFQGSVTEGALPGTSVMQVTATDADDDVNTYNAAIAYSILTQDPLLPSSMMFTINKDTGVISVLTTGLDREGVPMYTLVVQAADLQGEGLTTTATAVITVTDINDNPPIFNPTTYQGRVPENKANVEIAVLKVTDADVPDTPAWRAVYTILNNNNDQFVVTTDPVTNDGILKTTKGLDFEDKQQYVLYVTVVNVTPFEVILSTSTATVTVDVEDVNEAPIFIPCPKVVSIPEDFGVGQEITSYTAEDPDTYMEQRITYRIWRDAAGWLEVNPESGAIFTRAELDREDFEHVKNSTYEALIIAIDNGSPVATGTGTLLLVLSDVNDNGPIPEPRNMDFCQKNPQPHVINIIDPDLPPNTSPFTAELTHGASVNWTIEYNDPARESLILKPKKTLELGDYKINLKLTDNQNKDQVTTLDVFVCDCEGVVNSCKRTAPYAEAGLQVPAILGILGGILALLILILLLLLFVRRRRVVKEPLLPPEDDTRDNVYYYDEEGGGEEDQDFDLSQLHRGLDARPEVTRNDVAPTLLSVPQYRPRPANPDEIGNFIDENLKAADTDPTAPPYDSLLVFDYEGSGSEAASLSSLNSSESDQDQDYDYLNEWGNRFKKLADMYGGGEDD

Question: With plakoglobin (natural protein) as the molecule, how does the percent co-precipitated with endogenous E-cadherin relative to DsRed cells (cells expressing DECT) read?
Answer: 33%

Question: What about the percent co-precipitated with endogenous E-cadherin relative to DsRed cells (cells expressing DECTC) of the same molecule?
Answer: 187%

Question: What about the percent co-precipitated with endogenous E-cadherin relative to DsRed cells (cells expressing DECTN) of the same molecule?
Answer: 100%

Question: And the percent co-precipitated with endogenous E-cadherin relative to DsRed cells (cells expressing DsRed)?
Answer: 100%

B1: β-catenin (natural protein)
chain: MATQADLMELDMAMEPDRKAAVSHWQQQSYLDSGIHSGATTTAPSLSGKGNPEEEDVDTTQVLYEWEQGFSQSFTQEQVADIDGQYAMTRAQRVRAAMFPETLDEGMQIPSTQFDAAHPTNVQRLAEPSQMLKHAVVNLINYQDDAELATRAIPELTKLLNDEDQVVVNKAAVMVHQLSKKEASRHAIMRSPQMVSAIVRTMQNTNDVETARCTAGTLHNLSHHREGLLAIFKSGGIPALVKMLGSPVDSVLFYAITTLHNLLLHQEGAKMAVRLAGGLQKMVALLNKTNVKFLAITTDCLQILAYGNQESKLIILASGGPQALVNIMRTYTYEKLLWTTSRVLKVLSVCSSNKPAIVEAGGMQALGLHLTDPSQRLVQNCLWTLRNLSDAATKQEGMEGLLGTLVQLLGSDDINVVTCAAGILSNLTCNNYKNKMMVCQVGGIEALVRTVLRAGDREDITEPAICALRHLTSRHQEAEMAQNAVRLHYGLPVVVKLLHPPSHWPLIKATVGLIRNLALCPANHAPLREQGAIPRLVQLLVRAHQDTQRRTSMGGTQQQFVEGVRMEEIVEGCTGALHILARDVHNRIVIRGLNTIPLFVQLLYSPIENIQRVAAGVLCELAQDKEAAEAIEAEGATAPLTELLHSRNEGVATYAAAVLFRMSEDKPQDYKKRLSVELTSSLFRTEPMAWNETADLGLDIGAQGEPLGYRQDDPSYRSFHSGGYGQDALGMDPMMEHEMGGHHPGADYPVDGLPDLGHAQDLMDGLPPGDSNQLAWFDTDL
Question: Which results are given for B1?
Answer: percent co-precipitated with endogenous E-cadherin relative to DsRed cells (cells expressing DECT): 4%; percent co-precipitated with endogenous E-cadherin relative to DsRed cells (cells expressing DECTC): 24%; percent co-precipitated with endogenous E-cadherin relative to DsRed cells (cells expressing DECTN): 102%; percent co-precipitated with endogenous E-cadherin relative to DsRed cells (cells expressing DsRed): 100%
